According to patent publication US20140127175A1 (ZEALAND PHARMA A S, published 2014):
Non-standard residues stand in square brackets, D forms with d.

B1: ZP2634 (peptide)
peptide: H-HSQGTFTSDYSKYLDRARADDFVAWLKSA-NH2
B2: ZP2635 (peptide)
peptide: H-HSQGTFTSDYSKYLDRARADDFVAWLKEA-NH2
B3: ZP2637 (peptide)
peptide: H-HSQGTFTSDYSKYLDRARAEDFVAWLKST-NH2
B4: ZP2649 (peptide)
peptide: H-HSQGTFTSDYSKYLDRARADDFVEWLKST-NH2
B5: ZP2650 (peptide)
peptide: H-HSQGTFTSDYSKYLDRARADDFVAWLERA-NH2
B6: ZP2654 (peptide)
peptide: H-H[dS]QGTFTSDYSKYLDRARADDFVAWLKST-NH2
SMILES: CC(C)C[C@H](NC(=O)[C@H](Cc1c[nH]c2ccccc12)NC(=O)[C@H](C)NC(=O)[C@@H](NC(=O)[C@H](Cc1ccccc1)NC(=O)[C@H](CC(=O)O)NC(=O)[C@H](CC(=O)O)NC(=O)[C@H](C)NC(=O)[C@H](CCCNC(=N)N)NC(=O)[C@H](C)NC(=O)[C@H](CCCNC(=N)N)NC(=O)[C@H](CC(=O)O)NC(=O)[C@H](CC(C)C)NC(=O)[C@H](Cc1ccc(O)cc1)NC(=O)[C@H](CCCCN)NC(=O)[C@H](CO)NC(=O)[C@H](Cc1ccc(O)cc1)NC(=O)[C@H](CC(=O)O)NC(=O)[C@H](CO)NC(=O)[C@@H](NC(=O)[C@H](Cc1ccccc1)NC(=O)[C@@H](NC(=O)CNC(=O)[C@H](CCC(N)=O)NC(=O)[C@@H](CO)NC(=O)[C@@H](N)Cc1c[nH]cn1)[C@@H](C)O)[C@@H](C)O)C(C)C)C(=O)N[C@@H](CCCCN)C(=O)N[C@@H](CO)C(=O)N[C@H](C(N)=O)[C@@H](C)O
B7: ZP2648 (peptide)
peptide: H-HSQGTFTSDYSKYLDRARAHDFVAWLKST-NH2
B8: ZP2495 (peptide)
peptide: H-HSQGTFTSDYSKYLDRARADDFVAWLKST-NH2

Biological target: human glucagon-like peptide 1 receptor (human, UniProt P43220 24-463)
Assay: cell-based or functional assay

Chain of human glucagon-like peptide 1 receptor (P43220 24-463): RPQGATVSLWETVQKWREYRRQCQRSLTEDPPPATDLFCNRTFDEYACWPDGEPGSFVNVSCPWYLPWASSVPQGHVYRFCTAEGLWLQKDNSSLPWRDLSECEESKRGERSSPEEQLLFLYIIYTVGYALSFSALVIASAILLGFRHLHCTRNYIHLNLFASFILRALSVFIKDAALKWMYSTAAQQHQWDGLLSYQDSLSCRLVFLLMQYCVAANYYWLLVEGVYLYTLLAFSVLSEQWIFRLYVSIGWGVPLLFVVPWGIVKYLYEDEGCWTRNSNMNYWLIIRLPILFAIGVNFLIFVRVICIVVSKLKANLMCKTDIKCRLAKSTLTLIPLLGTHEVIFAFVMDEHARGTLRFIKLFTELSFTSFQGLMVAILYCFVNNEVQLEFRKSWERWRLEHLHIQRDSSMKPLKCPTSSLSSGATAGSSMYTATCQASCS

Binder | EC50 of cAMP formation, HEK293 cells expressing human GLP-1R
B1 | 0.2 nM
B2 | 0.2 nM
B3 | 0.1 nM
B4 | 0.1 nM
B5 | 0.8 nM
B6 | 0.8 nM
B7 | 0.1 nM
B8 | 0.23 nM

Biological target: human glucagon receptor (human, UniProt P47871 26-477)
Assay: cell-based or functional assay

Binder | EC50 of cAMP formation, HEK293 cells expressing human Glucagon-R
B1 | 0.5 nM
B2 | 0.2 nM
B3 | 0.2 nM
B4 | 0.3 nM
B5 | 0.07 nM
B6 | 0.5 nM
B7 | 0.2 nM
B8 | 0.5 nM
